Patent publication US20230192896A1 (BIOVERATIV THERAPEUTICS, published 2023)

Assays:
[1] = target: T1, free FIXa (activated Factor IX) (human, UniProt P00740 47-191; P00740 227-461); test: BLI; class meaning: paragraph 914
T1 construct: BLI antigen bought from Haematologic Technologies (HCIXA-0050); also called factor IXa

FIXa-SM (FIXa+EGR-CMK) = target: T2, FIXa-SM (FIXa+EGR-CMK) (human, UniProt P00740 47-191; P00740 227-461, EGR-CMK (L-Glu-Gly-Arg chloromethyl ketone) covalently bound to the active site); test: BLI; class meaning: paragraph 914
T2 construct: BLI antigen bought from Haematologic Technologies (HCIXA-EGR); also called FIXa with substrate mimic

binding result [1]	binding result (FIXa-SM (FIXa+EGR-CMK))	Binder
binds	binds	BIIB-9-445 (antibody, V domains shown, IgG) VH: QVQLVQSGAEVKKPGASVKVSCKASGYTFTSYYIHWVRQAPGQGLEWMGIINPSGGSTSYAQKFQGRVTMTRDTSTSTVYMELSSLRSEDTAVYYCARDVGQDYWFDLWGRGTLVTVSS VL: EIVMTQSPATLSVSPGERATLSCRASQSVSSNLAWYQQKPGQAPRLLIYSASTRATGIPARFSGSGSGTEFTLTISSLQSEDFAVYYCQQYDNFPFTFGGGTKVEIK
binds	binds	BIIB-9-1269 (antibody, V domains shown, IgG) VH: QVQLVQSGAEVKKPGASVKVSCKASGYTFTSYYMHWVRQAPGQGLEWMGIINPSGGSTSYAQKFQGRVTMTRDTSTSTVYMELSSLRSEDTAVYYCARDRGQYYHFDLWGRGTLVTVSS VL: DIQMTQSPSSVSASVGDRVAITCRASQGISSWLAWYQQKPGKAPKLLIYAASSLQSGVPSRFSGSGSGTDFTLTISSLQPEDFATYYCQQASSFPFTFGGGTKVEIK
binds	binds	BIIB-9-1264 (antibody, V domains shown, IgG) VH: QVQLVQSGAEVKKPGASVKVSCKASGYTFTSYYMHWVRQAPGQGLEWMGIINPSGGSTSYAQKFQGRVTMTRDTSTSTVYMELSSLRSEDTAVYYCARDGDSSVYAFDYWGQGTLVTVSS VL: DIQMTQSPSSLSASVGDRVTITCQASQDITNYLNWYQQKPGKAPKLLIYDASNLETGVPSRFSGSGSGTDFTFTISSLQPEDIATYYCQQVDDYPFTFGGGTKVEIK
binds	binds	BIIB-9-1267 (antibody, V domains shown, IgG) VH: QVQLVQSGAEVKKPGASVKVSCKASGYTFTSYYMHWVRQAPGQGLEWMGIINPSGGSTSYAQKFQGRVTMTRDTSTSTVYMELSSLRSEDTAVYYCARDHGWAIYGMDVWGQGTTVTVSS VL: not shown
binds	binds	BIIB-9-433 (antibody, V domains shown, IgG) VH: QLQLQESGPGLVKPSETLSLTCTVSGGSISSSRYYWGWIRQPPGKGLEWIGSIYYSGSTYYNPSLKSRVTISVDTSKNQFSLKLSSVTAADTAVYYCARDAGYSAELFDYWGQGTLVTVSS VL: EIVLTQSPATLSLSPGERATLSCRASQSVSSYLAWYQQKPGQAPRLLIYDASNRATGIPARFSGSGSGTDFTLTISSLEPEDFAVYYCQQSSAYPPTFGGGTKVEIK
binds	binds	BIIB-9-1270 (antibody, V domains shown, IgG) VH: QVQLVQSGAEVKKPGASVKVSCKASGYTFTSYYMHWVRQAPGQGLEWMGIINPSGGSTSYAQKFQGRVTMTRDTSTSTVYMELSSLRSEDTAVYYCARDTGGYAFDIWGQGTLVTVSS VL: EIVLTQSPATLSLSPGERATLSCRASQSVSSYLAWYQQKPGQAPRLLIYDASNRATGIPARFSGSGSGTDFTLTISSLEPEDFAVYYCQQSADFPFTFGGGTKVEIK
binds	binds	BIIB-9-1276 (antibody, V domains shown, IgG) VH: QLQLQESGPGLVKPSETLSLTCTVSGGSISSSSYYWGWIRQPPGKGLEWIGSIYYSGSTYYNPSLKSRVTISVDTSKNQFSLKLSSVTAADTAVYYCARDVGRTYELFDIWGQGTMVTVSS VL: DIQMTQSPSSVSASVGDRVTITCRASQGISSWLAWYQQKPGKAPKLLIYAASSLQSGVPSRFSGSGSGTDFTLTISSLQPEDFATYYCQQGNSFPITFGGGTKVEIK
binds	binds	BIIB-9-1268 (antibody, V domains shown, IgG) VH: QVQLVQSGAEVKKPGASVKVSCKASGYTFTSYYMHWVRQAPGQGLEWMGIINPSGGSTSYAQKFQGRVTMTRDTSTSTVYMELSSLRSEDTAVYYCARDPPSWYVFDIWGQGTMVTVSS VL: EIVMTQSPATLSLSPGERATLSCRASQSVSSYLAWYQQKPGQAPRLLIYDASNRATGIPARFSGSGSGTDFTLTISSLEPEDFAVYYCQQATVWPFTFGGGTKVEIK
binds	binds	BIIB-9-625 (antibody, V domains shown, IgG) VH: QLQLQESGPGLVKPSETLSLTCTVSGGSISSSSYAWGWIRQPPGKGLEWIGSIYYSGSTYYNPSLKSRVTISVDTSKNQFSLKLSSVTAADTAVYYCARDRGWYTEVLDIWGQGTMVTVSS VL: DIQMTQSPSSLSASVGDRVTITCRASQSISSYLNWYQQKPGKAPKLLIYAASSLQSGVPSRFSGSGSGTDFTLTISSLQPEDFATYYCQQSDTDPPTFGGGTKVEIK
binds	binds	BIIB-9-1273 (antibody, V domains shown, IgG) VH: QVQLVQSGAEVKKPGASVKVSCKASGYTFTSYYMHWVRQAPGQGLEWMGIINPSGGSTSYAQKFQGRVTMTRDTSTSTVYMELSSLRSEDTAVYYCARDTGGYAFDIWGQGTLVTVSS VL: EIVLTQYPATLSLSPGERATLSCRASQSVSSYLAWYQQKPGQAPRLLIYDASNRATGIPARFSGSGSGTDFTLTISSLEPEDFAVYYCQQSANFPFTFGGGTKVEIK
binds	binds	BIIB-9-1271 (antibody, V domains shown, IgG) VH: QVQLVQSGAEVKKPGASVKVSCKASGYTFTSYYMHWVRQAPGQGLEWMGIINPSGGSTSYAQKFQGRVTMTRDTSTSTVYMELSSLRSEDTAVYYCARDTGGYAFDIWGQGTLVTVSS VL: EIVMTQSPATLSVSPGERATLSCRASQSVSSNLAWYQQKPGQAPRLLIYGASTRATGIPARFSGSGSGTDFTLTISSLQPEDFATYYCQQGFSFPFTFGGGTKVEIK
binds	binds	BIIB-9-1265 (antibody, V domains shown, IgG) VH: QLQLQESGPGLVKPSETLSLTCTVSGGSISSSSYYWGWIRQPPGKGLEWIGSIYYSGSTYYNPSLKSRVTISVDTSKNQFSLKLSSVTAADTAVYYCARDGRHYYELFDYWGQGTLVTVSS VL: DIQMTQSPSSVSASVGDRVTITCRASQGISSWLAWYQQKPGKAPKLLIYAASSLQSGVPSRFSGSGSGTDFTLTISSLQPEDFATYYCQQGNSFPITFGGGTKVEIK
binds	binds	BIIB-9-470 (antibody, V domains shown, IgG) VH: EVQLVESGGGLVQPGGSLRLSCAASGFTFSSYWMSWVRQAPGKGLEWVANIKQDGSEKYYVDSVKGRFTISRDNAKNSLYLQMNSLRAEDTAVYYCARDAGIAWALDYWGQGTLVTVS VL: DIQMTQSPSTLSASVGDRVTITCRASQSISSWLAWYQQKPGKAPKLLIYKASSLESGVPSRFSGSGSGTEFTLTISSLQPDDFATYYCQHPHSWTFGGGTKVEIK
binds	binds	BIIB-9-1272 (antibody, V domains shown, IgG) VH: QVQLVQSGAEVKKPGASVKVSCKASGYTFTSYYMHWVRQAPGQGLEWMGIINPSGGSTSYAQKFQGRVTMTRDTSTSTVYMELSSLRSEDTAVYYCARDTGGYAFDIWGQGTLVTVSS VL: DIQMTQSPSSVSASVGDRVTITCRASQGISSWLAWYQQKPGKAPKLLIYAASSLQSGVPSRFSGSGSGTDFTLTISSLQPEDFATYYCQQASSFPFTFGGGTKVEIK
binds	binds	BIIB-9-1274 (antibody, V domains shown, IgG) VH: QVQLVQSGAEVKKPGASVKVSCKASGYTFTSYYMHWVRQAPGQGLEWMGIINPSGGSTSYAQKFQGRVTMTRDTSTSTVYMELSSLRSEDTAVYYCARDTGGYAFDIWGQGTLVTVSS VL: DIQMTQSPSSVSASVGDRVTITCRASQGISSWLAWYQQKPGKAPKLLIYAASSLQSGVPSRFSGSGSGTDFTLTISSLQPEDFATYYCQQANSFPFTFGGGTKVEIK
